Measured values reported in the supplement of paper PMC10724198.
± gives the standard deviation of the averaged measurements.

Tested on: Saccharomyces cerevisiae
Assay: protein stability index of tFT-peptide fusion (C-terminal peptide) (PSI (0-1 scale)); higher = more stable (slower turnover)
Conditions: temperature: 30 C
Method: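 MPS profiling in S. cerevisiae of the yeast C-terminome library: the last 12 aa of each annotated ORF are fused to the C-terminus of a sfGFP-mCherry timer, after a GGGS linker. Cells are FACS-sorted into 8 mCherry/sfGFP bins and deep-sequenced. PSI runs from 0 (unstable) to 1 (stable); wild type and das1Δ backgrounds, two technical replicates each.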

[1] = genetic background: das1 deletion

| Sequence | protein stability index [1] | protein stability index (genetic background: wild type) |
| --- | --- | --- |
| GRGAISYSDITI [PEP5 C-terminal 12 aa] | 0.707 ± 0.018 | 0.69 ± 0.0077 |
| GRLFEGMPGTET [ITT1 C-terminal 12 aa] | 0.709 ± 0.0093 | 0.71 ± 0.03 |
| GSEIDFTDYLGP [PUT3 C-terminal 12 aa] | 0.729 ± 0.012 | 0.716 ± 0.017 |
| GSLLLGLISFLL [EGT2 C-terminal 12 aa] | 0.669 ± 0.0091 | 0.6486 ± 0.0054 |
| GSSGRLTASPVY [PEX2 C-terminal 12 aa] | 0.696 ± 0.023 | 0.684 ± 0.022 |
| GTKEYCKMIDFL [YLR108C C-terminal 12 aa] | 0.704 ± 0.014 | 0.688 ± 0.019 |
| GTKEYYKGYEYL [MRX16 C-terminal 12 aa] | 0.6984 ± 0.0016 | 0.6641 ± 0.0017 |
| GTLESFFKRKAK [POL32 C-terminal 12 aa] | 0.732 ± 0.015 | 0.707 ± 0.03 |
| GVETLLDIFMKF [ARG82 C-terminal 12 aa] | 0.74146 ± 0.00055 | 0.706 ± 0.02 |
| GVFEADGLEAVH [YLR235C C-terminal 12 aa] | 0.717 ± 0.029 | 0.7688 ± 0.0057 |
| GVRRSVRLNNRV [MCM4 C-terminal 12 aa] | 0.699 ± 0.019 | 0.681 ± 0.015 |
| GVSFHVQVTMPQ [TRS33 C-terminal 12 aa] | 0.711 ± 0.023 | 0.704 ± 0.049 |
| GWEVLSVYSFTR [MTQ2 C-terminal 12 aa] | 0.727 ± 0.042 | 0.737 ± 0.098 |
| GWFEEVRDHKRH [SKY1 C-terminal 12 aa] | 0.731 ± 0.017 | 0.753 ± 0.022 |
| GWPLKDGNKKRK [OTO1 C-terminal 12 aa] | 0.682 ± 0.025 | 0.706 ± 0.065 |
| GYCFEFTLYNRK [DFR1 C-terminal 12 aa] | 0.7243 ± 0.0021 | 0.688 ± 0.013 |
| GYKPIILYHVIH [YDL025W-A C-terminal 12 aa] | 0.691 ± 0.024 | 0.598 ± 0.025 |
| GYYQRRNKRKRA [UTP20 C-terminal 12 aa] | 0.749 ± 0.012 | 0.69 ± 0.046 |
| HCGARLTVIPKK [YER137C C-terminal 12 aa] | 0.693 ± 0.016 | 0.688 ± 0.028 |
| HELIKKRWDDRK [NCE101 C-terminal 12 aa] | 0.712 ± 0.016 | 0.679 ± 0.018 |
| HETFDFRNLKLR [YER121W C-terminal 12 aa] | 0.701 ± 0.043 | 0.698 ± 0.024 |

| Sequence | protein stability index [1] | protein stability index (genetic background: wild type) |
| --- | --- | --- |
| HETMVNGSKRRL [DIF1 C-terminal 12 aa] | 0.686 ± 0.014 | 0.639 ± 0.014 |
| HEYVTINGDYRS [ARG7 C-terminal 12 aa] | 0.679 ± 0.017 | 0.702 ± 0.032 |
| HFASSLVSFLSK [ICT1 C-terminal 12 aa] | 0.727 ± 0.028 | 0.7183 ± 0.0037 |
| HIDIPDFAKWDI [SUL2 C-terminal 12 aa] | 0.727 ± 0.013 | 0.719 ± 0.009 |
| HLYSTLLFHSVN [RRG8 C-terminal 12 aa] | 0.728 ± 0.013 | 0.543 ± 0.033 |
| HNDNSGTVLGTA [RBD2 C-terminal 12 aa] | 0.7 ± 0.017 | 0.728 ± 0.032 |
| HNGKNKNRNSKK [MPP6 C-terminal 12 aa] | 0.691 ± 0.03 | 0.669 ± 0.016 |
| HPFLLWQGQVFF [YCR022C C-terminal 12 aa] | 0.729 ± 0.012 | 0.6995 ± 0.0021 |
| HQDSAKYTHYYL [YER158C C-terminal 12 aa] | 0.696 ± 0.016 | 0.652 ± 0.0081 |
| HTMENIFAGKLD [CUE4 C-terminal 12 aa] | 0.7177 ± 0.0019 | 0.69 ± 0.011 |
| IAKRFAKALGRS [ARN2 C-terminal 12 aa] | 0.711 ± 0.0084 | 0.695 ± 0.016 |
| IAQNVSRSSQQV [YMD8 C-terminal 12 aa] | 0.6875 ± 0.00089 | 0.731 ± 0.016 |
| ICKALVKQDLGL [LAP2 C-terminal 12 aa] | 0.6972 ± 0.002 | 0.657 ± 0.035 |
| IDIPISVRQVTK [BUL1 C-terminal 12 aa] | 0.707 ± 0.0073 | 0.696 ± 0.013 |
| IDKFLDHIGKSQ [FBP1 C-terminal 12 aa] | 0.698 ± 0.025 | 0.703 ± 0.012 |
| IDSIDDLVDSDT [NPP1 C-terminal 12 aa] | 0.6907 ± 0.0066 | 0.685 ± 0.015 |
| IEALYKLVEEKM [NQM1 C-terminal 12 aa] | 0.701 ± 0.017 | 0.6797 ± 0.0027 |
| IEKSKSDRRKLL [YHR022C C-terminal 12 aa] | 0.728 ± 0.063 | 0.2695 ± 0.0021 |
| IELQLTEIPKHK [FIN1 C-terminal 12 aa] | 0.701 ± 0.022 | 0.727 ± 0.085 |
| IGELLEGIRMSI [BIT2 C-terminal 12 aa] | 0.694 ± 0.012 | 0.729 ± 0.091 |
